By pKd is commonly meant the Kd on a negative log10 scale, so that one unit is a factor of ten.

These results are taken from publication PMC9482650, “Quantitative fragmentomics allow affinity mapping of interactomes” (Nature Communications, 2022).

Targets include DLG1_1, Q12959; GRIP2_7, Q9C0E4; PTPN3, P26045; HTRA1, Q92743; LNX1_2, Q8TBB1; IL16_1, Q14005; LNX1_1, Q8TBB1; GRIP2_4, Q9C0E4; PARD3_3, Q8TEW0; GRID2IP_1, A4D2P6; FRMPD3, Q5JV73.
Holding throughout (experiment): holdup assay
What all share (design): key: below the threshold = too weak to quantify, mostly under pKd 3.1 to 4

Another test has as its target T1, MPDZ_12, O75970.
T1 sequence (O75970 1857-1958, limits assumed, looked up): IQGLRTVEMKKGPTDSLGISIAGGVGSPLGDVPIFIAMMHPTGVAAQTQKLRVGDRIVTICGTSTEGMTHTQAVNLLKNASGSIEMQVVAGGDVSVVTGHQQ

A further test addresses T2, LNX2_2, Q8N448.
T2 sequence (Q8N448 334-432, limits assumed, looked up): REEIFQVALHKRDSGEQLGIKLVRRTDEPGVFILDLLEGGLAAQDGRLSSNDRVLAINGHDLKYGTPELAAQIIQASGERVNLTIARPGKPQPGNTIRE

A further test concerns the target T3, TJP3_3, O95049.
T3 sequence (O95049 375-456, limits assumed, looked up): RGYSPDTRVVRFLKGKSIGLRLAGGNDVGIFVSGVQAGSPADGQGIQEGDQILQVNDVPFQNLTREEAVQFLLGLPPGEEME

The next test concerns the target T4, LIN7C, Q9NUP9.
T4 sequence (Q9NUP9 88-185, limits assumed, looked up): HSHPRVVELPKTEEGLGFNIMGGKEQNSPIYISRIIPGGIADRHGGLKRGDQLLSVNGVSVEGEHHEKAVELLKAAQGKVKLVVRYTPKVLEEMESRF

For a further test, the target named is T5, ARHGAP21, Q5T5U3.
T5 sequence (Q5T5U3 45-169, limits assumed, looked up): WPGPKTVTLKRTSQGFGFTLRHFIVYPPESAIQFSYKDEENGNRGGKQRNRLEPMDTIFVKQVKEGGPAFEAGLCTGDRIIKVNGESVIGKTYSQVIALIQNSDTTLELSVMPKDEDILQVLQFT

Another test addresses T6, GRIP1_3, Q9Y3R0.
T6 sequence (Q9Y3R0 247-346, limits assumed, looked up): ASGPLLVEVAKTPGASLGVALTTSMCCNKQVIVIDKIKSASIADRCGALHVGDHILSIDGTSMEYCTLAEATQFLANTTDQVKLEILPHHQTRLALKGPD

The next test has as its target T7, APBA2_2, Q99767.
T7 sequence (Q99767 654-744, limits assumed, looked up): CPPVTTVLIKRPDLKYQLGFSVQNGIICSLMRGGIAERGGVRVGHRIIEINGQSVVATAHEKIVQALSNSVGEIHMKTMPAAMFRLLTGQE

For another test, the target named is T8, SNTG1, Q9NSN8.
T8 sequence (Q9NSN8 52-150, limits assumed, looked up): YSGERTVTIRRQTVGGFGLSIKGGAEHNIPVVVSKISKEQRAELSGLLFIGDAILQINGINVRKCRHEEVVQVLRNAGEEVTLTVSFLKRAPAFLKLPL

For the next test, the target named is T9, SYNJ2BP, P57105.
T9 sequence (P57105 8-110, limits assumed, looked up): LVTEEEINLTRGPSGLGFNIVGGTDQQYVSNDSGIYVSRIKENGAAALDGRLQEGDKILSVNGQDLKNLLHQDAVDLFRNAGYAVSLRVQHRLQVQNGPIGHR

In the next test the target is T10, LNX2_3, Q8N448.
T10 sequence (Q8N448 463-564, limits assumed, looked up): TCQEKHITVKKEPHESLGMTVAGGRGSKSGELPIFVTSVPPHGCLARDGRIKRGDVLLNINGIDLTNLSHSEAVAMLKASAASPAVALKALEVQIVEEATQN

The target of the next test is T11, PCLO, Q9Y6V0.
T11 sequence (Q9Y6V0 4491-4600, limits assumed, looked up): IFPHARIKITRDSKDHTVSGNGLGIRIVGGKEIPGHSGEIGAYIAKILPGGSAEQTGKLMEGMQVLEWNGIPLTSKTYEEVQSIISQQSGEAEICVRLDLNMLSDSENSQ

The next test addresses T12, PTPN13_1, Q12923.
T12 sequence (Q12923 1088-1188, limits assumed, looked up): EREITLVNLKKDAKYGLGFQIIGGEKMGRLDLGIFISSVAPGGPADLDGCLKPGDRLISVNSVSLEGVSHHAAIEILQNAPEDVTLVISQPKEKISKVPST

The next test addresses T13, APBA3_1, O96018.
T13 sequence (O96018 389-490, limits assumed, looked up): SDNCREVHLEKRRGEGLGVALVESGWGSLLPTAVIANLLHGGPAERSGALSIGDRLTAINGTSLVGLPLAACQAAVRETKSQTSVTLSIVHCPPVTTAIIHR

[1] abbreviates: plain residues with an end cap or a label only (N-terminal biotin on a linker: ado-ado).
The mark [2] stands for this setting: plain residues with an end cap or a label only (N-terminal biotin on a linker: ttds).
Where [3] appears, read: plain residues with an end cap or a label only (N-terminal biotin on a linker: ahx).

Chain of FRMPD3, Q5JV73 (Q5JV73 12-100): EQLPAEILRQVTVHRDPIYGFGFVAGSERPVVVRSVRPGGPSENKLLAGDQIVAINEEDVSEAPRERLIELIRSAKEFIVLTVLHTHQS
Chain of GRIP2_7, Q9C0E4 (Q9C0E4 934-1023): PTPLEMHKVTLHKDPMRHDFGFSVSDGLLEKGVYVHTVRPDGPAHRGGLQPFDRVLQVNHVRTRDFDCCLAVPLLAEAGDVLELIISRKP
Chain of LNX1_1, Q8TBB1 (Q8TBB1 261-371): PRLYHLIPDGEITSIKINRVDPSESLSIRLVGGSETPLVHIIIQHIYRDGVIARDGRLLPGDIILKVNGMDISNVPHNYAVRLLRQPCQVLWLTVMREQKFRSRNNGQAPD
Chain of PARD3_3, Q8TEW0 (Q8TEW0 582-685): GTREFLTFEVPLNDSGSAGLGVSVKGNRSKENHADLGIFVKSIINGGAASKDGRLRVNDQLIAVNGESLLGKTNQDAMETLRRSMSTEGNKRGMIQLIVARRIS
Chain of LNX1_2, Q8TBB1 (Q8TBB1 371-470): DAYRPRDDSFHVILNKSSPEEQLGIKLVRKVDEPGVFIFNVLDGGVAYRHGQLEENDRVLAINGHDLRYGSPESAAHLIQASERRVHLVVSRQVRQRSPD
Chain of GRIP2_4, Q9C0E4 (Q9C0E4 446-548): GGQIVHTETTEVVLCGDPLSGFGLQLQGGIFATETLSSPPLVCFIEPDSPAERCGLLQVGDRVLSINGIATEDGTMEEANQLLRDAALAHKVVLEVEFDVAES
Chain of GRID2IP_1, A4D2P6 (A4D2P6 1-87): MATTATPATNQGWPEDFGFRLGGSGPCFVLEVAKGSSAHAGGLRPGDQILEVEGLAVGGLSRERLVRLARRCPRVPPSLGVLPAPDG
Chain of PTPN3, P26045 (P26045 505-587): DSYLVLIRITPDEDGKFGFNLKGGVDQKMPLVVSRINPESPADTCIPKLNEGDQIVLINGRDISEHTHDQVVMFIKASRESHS
Chain of IL16_1, Q14005 (Q14005 210-306): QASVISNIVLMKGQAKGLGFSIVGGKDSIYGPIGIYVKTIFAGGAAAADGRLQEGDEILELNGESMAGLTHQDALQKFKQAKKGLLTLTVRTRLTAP
Chain of HTRA1, Q92743 (Q92743 360-477): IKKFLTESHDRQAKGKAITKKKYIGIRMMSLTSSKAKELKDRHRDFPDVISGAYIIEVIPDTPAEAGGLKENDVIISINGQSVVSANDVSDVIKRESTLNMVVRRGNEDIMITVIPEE

Turning to PDSYHRRDFW [U2AF2, P26368], the negative logarithm of the Kd (pKd) result is “below the threshold” in the test with DLG1_1, Q12959 (setting [1]); “below the threshold” in the test with GRIP2_7, Q9C0E4 (setting [1]); “below the threshold” with PTPN3, P26045 (setting [1]); 4.14 in the test with HTRA1, Q92743 (setting [1]); “below the threshold” with LNX1_2, Q8TBB1 (setting [1]); “below the threshold” in the test with MPDZ_12, O75970 (setting [1]). Also, the pKd result in the test with LNX2_2, Q8N448 (setting [1]) was “below the threshold”; with TJP3_3, O95049 (setting [1]) it was “below the threshold”; in the test with LIN7C, Q9NUP9 (setting [1]) it was “below the threshold”; in the test with IL16_1, Q14005 (setting [1]), “below the threshold”; with ARHGAP21, Q5T5U3 (setting [1]) it was 4.08; in the test with GRIP1_3, Q9Y3R0 (setting [1]), “below the threshold”. Further, the pKd result in the test with APBA2_2, Q99767 (setting [1]) is on record as “below the threshold”; in the test with SNTG1, Q9NSN8 (setting [1]), “below the threshold”; with LNX1_1, Q8TBB1 (setting [1]), “below the threshold”; in the test with GRIP2_4, Q9C0E4 (setting [1]), “below the threshold”; with SYNJ2BP, P57105 (setting [1]), “below the threshold”; with PARD3_3, Q8TEW0 (setting [1]), “below the threshold”. Besides, the pKd entry with LNX2_3, Q8N448 (setting [1]) is “below the threshold”; with PCLO, Q9Y6V0 (setting [1]), “below the threshold”; with GRID2IP_1, A4D2P6 (setting [1]), “below the threshold”; with FRMPD3, Q5JV73 (setting [1]), “below the threshold”; in the test with PTPN13_1, Q12923 (setting [1]) it was “below the threshold”; in the test with APBA3_1, O96018 (setting [1]) it was “below the threshold”.
For NPDALPETLV [ARHGAP6, O43182], the pKd with DLG1_1, Q12959 (setting [2]) was 4.39; with GRIP2_7, Q9C0E4 (setting [2]) it was “below the threshold”; in the test with PTPN3, P26045 (setting [2]), 4.44; with HTRA1, Q92743 (setting [2]), 4.13; with LNX1_2, Q8TBB1 (setting [2]) it was 3.73; with MPDZ_12, O75970 (setting [2]) it was “below the threshold”. Also, the pKd with LNX2_2, Q8N448 (setting [2]) is 4.66; in the test with TJP3_3, O95049 (setting [2]), “below the threshold”; with LIN7C, Q9NUP9 (setting [2]), 4.31; with IL16_1, Q14005 (setting [2]), 3.87; in the test with ARHGAP21, Q5T5U3 (setting [2]), “below the threshold”; with GRIP1_3, Q9Y3R0 (setting [2]), “below the threshold”. Besides, the pKd result with APBA2_2, Q99767 (setting [2]) was “below the threshold”; with SNTG1, Q9NSN8 (setting [2]) it was 5.33; with LNX1_1, Q8TBB1 (setting [2]) it was 3.83; with GRIP2_4, Q9C0E4 (setting [2]) it was “below the threshold”; in the test with SYNJ2BP, P57105 (setting [2]), 4.06; in the test with PARD3_3, Q8TEW0 (setting [2]), 3.85. Also, the pKd result is reported as “below the threshold” with LNX2_3, Q8N448 (setting [2]); “below the threshold” in the test with PCLO, Q9Y6V0 (setting [2]); “below the threshold” with GRID2IP_1, A4D2P6 (setting [2]); “below the threshold” with FRMPD3, Q5JV73 (setting [2]); “below the threshold” with PTPN13_1, Q12923 (setting [2]); “below the threshold” with APBA3_1, O96018 (setting [2]).
With QRPYRRESEI [KCNJ12, Q14500], the pKd in the test with DLG1_1, Q12959 (setting [2]) was 4.04; in the test with GRIP2_7, Q9C0E4 (setting [2]) it was “below the threshold”; with PTPN3, P26045 (setting [2]) it was 4.65; in the test with HTRA1, Q92743 (setting [2]), “below the threshold”; in the test with LNX1_2, Q8TBB1 (setting [2]), “below the threshold”; with MPDZ_12, O75970 (setting [2]) it was “below the threshold”. Moreover, the negative logarithm of the Kd (pKd) entry with LNX2_2, Q8N448 (setting [2]) was “below the threshold”; with TJP3_3, O95049 (setting [2]), “below the threshold”; with LIN7C, Q9NUP9 (setting [2]), “below the threshold”; with IL16_1, Q14005 (setting [2]), “below the threshold”; in the test with ARHGAP21, Q5T5U3 (setting [2]), “below the threshold”; with GRIP1_3, Q9Y3R0 (setting [2]) it was 3.51. For the same molecule, the negative-log Kd (pKd) result in the test with APBA2_2, Q99767 (setting [2]) is “below the threshold”; in the test with SNTG1, Q9NSN8 (setting [2]), 3.82; with LNX1_1, Q8TBB1 (setting [2]), “below the threshold”; with GRIP2_4, Q9C0E4 (setting [2]), “below the threshold”; in the test with SYNJ2BP, P57105 (setting [2]), 5.17; with PARD3_3, Q8TEW0 (setting [2]) it was “below the threshold”. For the same molecule, the pKd entry in the test with LNX2_3, Q8N448 (setting [2]) is on record as “below the threshold”; in the test with PCLO, Q9Y6V0 (setting [2]) it was “below the threshold”; with GRID2IP_1, A4D2P6 (setting [2]) it was “below the threshold”; with FRMPD3, Q5JV73 (setting [2]), “below the threshold”; in the test with PTPN13_1, Q12923 (setting [2]) it was “below the threshold”; with APBA3_1, O96018 (setting [2]), “below the threshold”.
On to AKPQPVDSWV [ARVCF, O00192], for which the pKd was 4.29 in the test with DLG1_1, Q12959 (setting [3]); 4.13 in the test with GRIP2_7, Q9C0E4 (setting [3]); 4.94 with PTPN3, P26045 (setting [3]); 4.6 with HTRA1, Q92743 (setting [3]); “below the threshold” in the test with LNX1_2, Q8TBB1 (setting [3]); 4.4 in the test with MPDZ_12, O75970 (setting [3]). Also, the negative logarithm of the Kd (pKd) with LNX2_2, Q8N448 (setting [3]) was 4.44; with TJP3_3, O95049 (setting [3]) it was 4.73; with LIN7C, Q9NUP9 (setting [3]), “below the threshold”; in the test with IL16_1, Q14005 (setting [3]), 4.1; with ARHGAP21, Q5T5U3 (setting [3]) it was “below the threshold”; with GRIP1_3, Q9Y3R0 (setting [3]) it was “below the threshold”. Further, the negative logarithm of the Kd (pKd) result with APBA2_2, Q99767 (setting [3]) was “below the threshold”; with SNTG1, Q9NSN8 (setting [3]), 4.64; in the test with LNX1_1, Q8TBB1 (setting [3]), “below the threshold”; with GRIP2_4, Q9C0E4 (setting [3]), “below the threshold”; with SYNJ2BP, P57105 (setting [3]), 5.04; in the test with PARD3_3, Q8TEW0 (setting [3]), 4.05. Moreover, the pKd entry in the test with LNX2_3, Q8N448 (setting [3]) is recorded as “below the threshold”; with PCLO, Q9Y6V0 (setting [3]), “below the threshold”; with GRID2IP_1, A4D2P6 (setting [3]), “below the threshold”; in the test with FRMPD3, Q5JV73 (setting [3]), “below the threshold”; with PTPN13_1, Q12923 (setting [3]), “below the threshold”; with APBA3_1, O96018 (setting [3]), “below the threshold”.
